Measurements: patent US9669247B2 (priority 2011, dated 2017)

Columns and labels:
[1] = pH 7
[2] = pH 7; remark: listed apart in the source

B1: TsmE (protein)
chain: METDKKTGTSRRSFVKAAGTGAIGIATLPLSTATAFAETDNVELAQSKRKVVLAEQGSFYIGGRTVTGPGKFDPSKPVIPYSNEGATFYINQMYVNFQAPVRPRGLPLVFWHGGGLTGHIWESTPDGRPGFQTLFVQDRHTVYTIDQPGRGRGNIPTFNGPFGQLEEESIVNTVTGNSSKEGAWVRDRLGPAPGQFFENSQFPRGYEDNYFKEMGFSPSISSDEIVDAVVKLVTHIGPCVLVTHSASGVLGMRVATHAKNVRGIVAYEPATSIFPKGKVPEIPPLADKKSQIFPPFEIQESYFKKLAKIPIQFVFGDNIPKNPKSAYWFLDWWRVTRYAHSLSLEAINKLGGQASLLDLPTAGLRGNTHFPFTDRNNVQVASLLSDFLGKHGLDQNES
modifications: Methylophilus sp. S113; Thiefensulfuron Hydrolase TSME
With B1 as the molecule, how does the “specific enzyme activity of TsmE to thifensulfuron” value [1] read?
Its value is 67 U/mg protein.

What about the “specific enzyme activity of TsmE to haloxyfop-R-methyl” value [2] of the same molecule?
The value was 55 U/mg protein.
